# Measurements: the Immune Epitope Database (IEDB)
# Experiments:
# Assay in all cases: IEDB peptide-MHC binding, purified MHC/competitive/radioactivity; ≥ and ≤ were set here for values at or beyond the usual limits of such assays
# Conditions in all cases: source organism: Bordetella pertussis
# HLA-B*44:03 = target: HLA-B*44:03
# HLA-B*53:01 = target: HLA-B*53:01
# HLA-B*35:01 = target: HLA-B*35:01
# HLA-B*07:02 = target: HLA-B*07:02
# HLA-A*02:01 = target: HLA-A*02:01
# HLA-B*57:01 = target: HLA-B*57:01
sequence,measurement,setting,value
AEHGEVSIQ,IC50,HLA-B*44:03,2.88 µM
AEVKVGYRA,IC50,HLA-B*44:03,2.36 µM
DATFETYAL,IC50,HLA-B*53:01,4.9 µM
EPQAELAVF,IC50,HLA-B*53:01,4.52 µM
ESYSESHNF,IC50,HLA-B*53:01,6.27 µM
FAILSSTTE,IC50,HLA-B*35:01,69.9 µM
same,IC50,HLA-B*53:01,47.1 µM
FVRDGQSVI,IC50,HLA-B*07:02,5.56 µM
GAVPGGAVP,IC50,HLA-B*53:01,69.9 µM
GGVPGGAVP,IC50,HLA-B*53:01,26.7 µM
GKLPKPVTV,IC50,HLA-A*02:01,69.4 µM
KDYRDKDGG,IC50,HLA-B*07:02,69.6 µM
KEAATIVAA,IC50,HLA-B*44:03,15 µM
KPAPQPGPQ,IC50,HLA-B*07:02,31.7 µM
KPAPTAPPM,IC50,HLA-B*35:01,0.019 µM
LPVRGVALV,IC50,HLA-B*35:01,69.9 µM
same,IC50,HLA-B*53:01,≥ 78.2 µM
PPRPVAAQV,IC50,HLA-B*07:02,17.8 µM
SESHNFHAS,IC50,HLA-B*44:03,32.7 µM
VALASQARW,IC50,HLA-B*57:01,0.188 µM
YLRQITPGW,IC50,HLA-B*57:01,1.54 µM
